Laboratory results published in PMC4990258, “Mutations at the Subunit Interface of Yeast Proliferating Cell Nuclear Antigen Reveal a Versatile Regulatory Domain” (PLoS ONE, 2016).

Molecular target: T1, GST-Rev1 (full-length Rev1) (S. cerevisiae, UniProt P12689 1-985)
T1 construct: Rev1, yeast, full-length; Held on the beads by GST during the incubation; Rev1 was cut from GST by PreScission protease only at the elution step; not shown: GST, N-terminal, kept
T1 sequence (looked up): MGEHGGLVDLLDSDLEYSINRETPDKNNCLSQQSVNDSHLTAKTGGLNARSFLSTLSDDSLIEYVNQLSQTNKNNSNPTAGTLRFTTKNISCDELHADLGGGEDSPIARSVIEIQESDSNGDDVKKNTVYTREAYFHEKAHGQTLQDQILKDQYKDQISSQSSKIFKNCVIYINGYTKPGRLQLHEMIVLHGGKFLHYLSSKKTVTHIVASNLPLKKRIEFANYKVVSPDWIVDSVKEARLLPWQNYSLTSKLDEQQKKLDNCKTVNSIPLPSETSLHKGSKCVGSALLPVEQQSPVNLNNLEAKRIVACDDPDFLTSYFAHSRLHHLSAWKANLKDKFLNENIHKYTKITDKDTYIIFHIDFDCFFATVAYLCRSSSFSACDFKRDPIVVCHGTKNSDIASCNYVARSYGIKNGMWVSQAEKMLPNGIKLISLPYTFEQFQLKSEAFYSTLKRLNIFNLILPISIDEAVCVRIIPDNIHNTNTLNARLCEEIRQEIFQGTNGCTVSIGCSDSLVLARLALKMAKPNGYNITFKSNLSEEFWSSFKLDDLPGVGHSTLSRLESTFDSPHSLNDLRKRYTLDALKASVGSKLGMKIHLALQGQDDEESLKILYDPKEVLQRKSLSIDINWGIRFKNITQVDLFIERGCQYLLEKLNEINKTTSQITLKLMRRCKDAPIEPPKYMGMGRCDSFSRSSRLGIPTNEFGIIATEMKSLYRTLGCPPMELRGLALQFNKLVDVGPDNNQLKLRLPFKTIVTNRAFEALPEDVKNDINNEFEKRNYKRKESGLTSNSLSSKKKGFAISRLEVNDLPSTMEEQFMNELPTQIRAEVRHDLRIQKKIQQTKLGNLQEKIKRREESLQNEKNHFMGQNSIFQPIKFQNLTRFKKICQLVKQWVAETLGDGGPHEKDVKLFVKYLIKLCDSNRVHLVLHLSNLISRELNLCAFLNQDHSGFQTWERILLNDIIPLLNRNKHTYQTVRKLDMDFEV
Assay: pull-down; GST-Rev1 (5 μg) immobilised on glutathione-Sepharose beads, incubated with purified PCNA (3 μg) overnight on ice; 50 mM Tris/HCl pH 7.5, 100 mM NaCl, 1 mM EDTA, 1 mM DTT, 10% glycerol, 0.01% Nonidet P-40; five washes; eluted by PreScission protease cleavage of Rev1 from GST; SDS-PAGE
Conditions: both partners purified

binding result: binds
B1: wild type PCNA (proliferating cell nuclear antigen, Saccharomyces cerevisiae) (natural protein, S. cerevisiae)
chain: MLEAKFEEASLFKRIIDGFKDCVQLVNFQCKEDGIIAQAVDDSRVLLVSLEIGVEAFQEYRCDHPVTLGMDLTSLSKILRCGNNTDTLTLIADNTPDSIILLFEDTKKDRIAEYSLKLMDIDADFLKIEELQYDSTLSLPSSEFSKIVRDLSQLSDSINIMITKETIKFVADGDIGSGSVIIKPFVDMEHPETSIKLEMDQPVDLTFGAKYLLDIIKGSSLSDRVGIRLSSEAPALFQFDLKSGFLQFFLAPKFNDEE
notes: PCNA (POL30 gene product), Saccharomyces cerevisiae, wild type; the oligomeric state of the purified protein was not measured here; also called wt PCNA; yeast PCNA; source: yeast BJ5464, overexpressed as GST fusion, purified on glutathione-Sepharose 4B, GST removed by PreScission protease; not shown: GST, N-terminal, cleaved
